The source of these data is article PMC4805542.

For this data set, the system named is ZF6-DB (synthetic construct). The data set can be described thus: EMSA. To be noted: 1.5 uM protein, DNA titrated 145-250 nM; apparent Kd, Scatchard; 6.25 mM MgCl2; 25 mM Hepes pH 7.9, 50 mM KCl, 6.25 mM MgCl2, 1% Nonidet P-40, 5% glycerol; 15 min on ice; 5% PAGE in 0.5x TBE at 4 C.

Consider hRHO 65 bp duplex oligonucleotide, for which the Kd worked out at 41.9 nM.
